In patent publication US20230322953A1:

Experiments:
[1] = target: human CD3 (TCR/CD3 complex) on human T cells (human) (UniProt P07766); assay: flow cytometry (FACS) on human T cells, Experiment 2, isotype control
[2] = target: cynomolgus monkey CD3 (TCR/CD3 complex) on cynomolgus monkey T cells (cynomolgus monkey); assay: flow cytometry (FACS) on cynomolgus monkey T cells, isotype control
[3] = target: human CD3 (TCR/CD3 complex) on human T cells (human) (UniProt P07766); assay: flow cytometry (FACS) on human T cells, Experiment 3, isotype control

Chain of human CD3 (TCR/CD3 complex) on human T cells (human) (P07766 23-207, one chain of several): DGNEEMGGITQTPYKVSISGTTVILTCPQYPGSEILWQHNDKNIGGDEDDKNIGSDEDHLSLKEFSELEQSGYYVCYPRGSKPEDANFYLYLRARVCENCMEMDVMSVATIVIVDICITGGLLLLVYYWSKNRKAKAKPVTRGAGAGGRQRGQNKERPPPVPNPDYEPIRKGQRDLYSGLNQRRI
Chain of cynomolgus monkey CD3 (TCR/CD3 complex) on cynomolgus monkey T cells (cynomolgus monkey) (Q95LI5 22-198, one chain of several): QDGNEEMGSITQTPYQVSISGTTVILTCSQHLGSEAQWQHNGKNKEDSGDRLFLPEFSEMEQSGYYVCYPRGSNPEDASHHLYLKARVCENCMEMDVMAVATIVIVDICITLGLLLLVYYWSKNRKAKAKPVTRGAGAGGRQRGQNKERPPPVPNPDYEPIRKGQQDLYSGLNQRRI

- Maximum MFI [1]: 12 MFI
- Maximum MFI [2]: 794 MFI
- Maximum MFI [3]: 3000 MFI
Substance: hIgG1 iso (CrownBio, #C0001) (antibody)
